From paper PMC4141209

Target: TlLhpI (OCD-like protein / Δ1-pyrroline-2-carboxylate reductase from Thermococcus litoralis DSM 5473) (Thermococcus litoralis DSM 5473)
Assay: SEC

stoichiometry N: 2
Substance: TlLhpI (OCD-like protein / Δ1-pyrroline-2-carboxylate reductase from Thermococcus litoralis DSM 5473) (enzyme)
